# Results from patent US20240272176A1, “SINGLE DOMAIN ANTIBODY SPECIFIC FOR PHOSPHORYLATED H2AX AND ITS USES” (UNIVERSITE DE STRASBOURG, priority 2021, published 2024).
# B1: C6-mCherry chromobody (expressed in transfected H1299 cells) (other, not shown: small tags and cut ends)
# VHH: MADVQLVESGGGLVQAGDSLRLSCAASGLTFSRYAMGWFRQAPGNEREFVAVITASGRTTLYADSVKGRFTISRDNAKNTVALQMQSLKPEDTAVYYCAADYGTSRYTRRQSEYEYWGQGTQVTVSSAAA
# notes: Expressed under the β-actin promoter from pβA-C6-E6T-mCherry; junctions not spelled out; also called C6 chromobody; C6 nanobody-mCherry
# B2: C6-mCherry: C6 coding region fused in frame to mCherry, expressed by transfection (protein)
# VHH: B1 VHH
# modifications: left off: small tags and cut ends
# notes: C6 coding region fused in frame to mCherry, expressed by transfection
# What was measured:
# [1] = target: T1, γ-H2AX (histone H2AX phosphorylated at serine 139) in drug-treated H1299 or U2OS cells or their extracts (human, UniProt P16104 1-143, phosphorylation of serine at position 139 (S139)); experiment: mCherry fluorescence in transfected H1299 cells after CSK wash
# T1 construct: Endogenous nuclear protein of H1299 and U2OS cells (fixed, living, or nuclear/histone extracts), not on the cell surface; also called gammaH2AX; γ-H2AX foci
# Experimental: Thus, despite their solubility in mammalian cells, these reagents cannot be transfected into cells to detect with precision γ-H2AX after drug treatment likely due to too high chromobody expression levels.
# For the analysis by classical immunofluorescence microscopy, the transfected or transduced cells were fixed with 4% paraformaldehyde for 20 minutes and, after permeabilization with 0.2% Triton X100 for 5 min, they were incubated with mAb 3F4 or VHH preparations diluted in PBS containing either 10% fetal calf serum or 2% BSA. Where indicated, the cells were treated with CSK-100 modified buffer (100 mM NaCl, 300 mM sucrose, 3 mM MgCl₂, 10 mM HEPES pH 6.8, 1 mM EGTA, and 0.2% Triton X-100) for 5 minutes prior to fixation. […] Where indicated, Alexa 568 labelled-C6B molecules were used. The labelling of the purified bivalent C6 equipped with a cysteine residue at the C-terminus was performed essentially as previously described (Shaner, N.C. et al.; Nat. Biotechnol. 2004, 22, 1567-1572). Briefly, purified protein in 0.1 M KH₂PO₄ pH 6.5, 150 mM NaCl, 1 mM EDTA, 250 mM sucrose was mixed with a 1.2 molar amount of Alexa Fluor 568 maleimide derivative (ThermoFisher Scientific). […] The amount of fluorophore per bivalent C6 in the flow-through was calculated by spectrophotometry with a Nanodrop 2000 device (ThermoFisher Scientific). […] The signal was recorded with a Leica DFC350FX camera. […]
# γ-H2AX in H1299 cells = target: T2, γ-H2AX in H1299 cells (Homo sapiens, UniProt P16104); experiment: Chromobody expression by transient transfection in H1299 cells with CSK buffer wash prior to fixation; format: cell-based; conditions: transfected H1299 cells
# T2 construct: endogenous in cells; host or cells: H1299
# Description: The pβA-scFv-eGFP, a derivative of pDRIVE-hβ-actin (Rinaldi, A.-S. et al.; Exp. Cell Res. 2013, 319, 838-849, doi:10.1016/j.yexcr.2013.01.011) was modified by PCR to insert in frame to the scFv the E6 tag and the mCherry protein using E6T-HindIII-For/E6T-HindIII-Rev and mCherry-For/mCherry-Rev primer pairs, respectively. This vector which carries unique NcoI and SpeI restriction sites was used to sub-clone the VHH variants as described above, thereby generating pβA-C6-E6T-mCherry, pβA-C6M-E6T-mCherry, pβA-C6B-E6T-mCherry and pβA-C6BM-E6T-mCherry.
# The day before transfection, 8×10^4 cells were plated in 12-well culture plates containing glass coverslips. […]
# For the analysis by classical immunofluorescence microscopy, the transfected or transduced cells were fixed with 4% paraformaldehyde for 20 minutes and, after permeabilization with 0.2% Triton X100 for 5 min, they were incubated with mAb 3F4 or VHH preparations diluted in PBS containing either 10% fetal calf serum or 2% BSA. […] The amount of fluorophore per bivalent C6 in the flow-through was calculated by spectrophotometry with a Nanodrop 2000 device (ThermoFisher Scientific). […] The signal was recorded with a Leica DFC350FX camera. […] For the measurement of the nuclear fluorescence intensity, the images of microscopy fields were acquired with the 20× objective. […]
molecule,measurement,setting,value
B1,binding result,[1],no binding
B2,nuclear chromobody signal after CSK treatment,γ-H2AX in H1299 cells,entirely washed off
same,nuclear chromobody signal after CSK treatment,γ-H2AX in H1299 cells; listed as C6 chromobody,lost in both drug-treated and untreated cells
